This is an account of results in patent US9150659B2, “Anti-tace antibody molecules and their uses” (priority 2011, dated 2015).

Data set [1] has as its target T1, Recombinant human ADAM10 ectodomain (Homo sapiens, UniProt O14672).
T1 construct: Recombinant human ADAM10 ectodomain
T1 sequence (O14672 214-672 limits assumed): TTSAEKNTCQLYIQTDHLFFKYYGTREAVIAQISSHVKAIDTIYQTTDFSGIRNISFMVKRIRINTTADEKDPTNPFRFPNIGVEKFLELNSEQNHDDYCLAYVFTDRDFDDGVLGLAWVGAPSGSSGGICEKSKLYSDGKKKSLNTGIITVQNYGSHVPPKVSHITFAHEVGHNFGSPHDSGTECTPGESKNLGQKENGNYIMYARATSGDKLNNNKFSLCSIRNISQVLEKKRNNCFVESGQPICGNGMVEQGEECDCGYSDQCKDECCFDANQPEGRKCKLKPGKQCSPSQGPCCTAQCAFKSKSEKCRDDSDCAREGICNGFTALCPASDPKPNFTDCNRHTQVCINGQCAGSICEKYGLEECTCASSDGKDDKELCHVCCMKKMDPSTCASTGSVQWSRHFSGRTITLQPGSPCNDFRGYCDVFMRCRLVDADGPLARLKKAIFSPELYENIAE
Briefly: ADAM10 quench fluorescent peptide cleavage assay. The class given is biochemical. The conditions noted are these: titrated concentrations.

Data set [2] deals with T2, PDI treated TACE ectodomain (Homo sapiens, UniProt P78536).
T2 construct: Mature recombinant TACE ectodomain (Arg^215-Arg^651) was expressed in baculovirus infected sf9 cells; made in house; host or cells: baculovirus infected Sf9 cells
The data set can be described thus: Antibody binding after PDI treatment of the TACE ectodomain.

For data set [3], the target named is T3, Recombinant human TACE catalytic domain (Homo sapiens, UniProt P78536).
T3 construct: The mature catalytic domain of TACE (Arg^215-Val^477-GlySer-His^6) was prepared using an identical baculovirus system; GlySer-His6 (C); made in house; host or cells: baculovirus system (Sf9)
The data set can be described thus: Quenched fluorescent peptide cleavage assay, isolated TACE catalytic domain. Type of data set: biochemical. The note with it: 1 nM TACE catalytic domain; read-out: IC50 Cat:WT, isolated catalytic domain, quenched fluorescent peptide. The method, then: (§1) Recombinant human TACE catalytic domain and TACE ectodomain were diluted to 1 nM in 50 mM Tris-HCl, 10 mM CaCl2, 0.05% Brij35, 1% DMSO, pH 7.4 and pre-incubated with titrated concentrations of inhibitor for 4-hours at room temperature. Following incubation, each reaction was separated into 200 μL technical quadruplets in a 96-well black Microwell plate (Nunc 237105), and the fluorogenic substrate methoxycoumarinyl acetyl-Lys-Pro-Leu-Gly-Leu-dinitrophenyl diaminopropionyl-Ala-Arg-NH2 (Peptides International SMO-3670-PI) was added to each well (final concentration 1 μM). Every 30 seconds fluorescence was excited at 320 nm and emission recorded at 405 nm in a Tecan Infinite-200 (at 37° C. for 2000 seconds). Individual readings were normalised against a substrate only control and compiled to produce a mean trend for each variable. A linear regression slope for each reaction was calculated in GraphPad Prism (ΔFU sec^−1) and proteolytic activity was expressed as the slope percentage of an untreated control (% ΔFU sec^−1). Final results represent mean values from three separate experiments.
(§2) Purified recombinant scFvs were subjected to an 8-point fluorometric titration ([TACE]=1 nM) (as above) and a 16-point titration ELISA ([TACE]-500 nM). […] Change in Gibb's Free Energy (ΔΔG) was calculated using the equation: ΔΔG=+RT1n(Ala/WT).

Data set [4] concerns the target T4, Recombinant human TACE ectodomain (Arg215-Arg651) (Homo sapiens, UniProt P78536).
T4 construct: Mature recombinant TACE ectodomain (Arg^215-Arg^651) was expressed in baculovirus infected sf9 cells; made in house; host or cells: baculovirus infected Sf9 cells
Briefly: Quenched fluorescent peptide cleavage assay, TACE ectodomain. Type of data set: biochemical. The note with it: 1 nM TACE ectodomain; read-out: IC50, TACE ectodomain proteolysis, quenched fluorescent peptide. The method, then: as §1, §2

T4 sequence (P78536 215-651): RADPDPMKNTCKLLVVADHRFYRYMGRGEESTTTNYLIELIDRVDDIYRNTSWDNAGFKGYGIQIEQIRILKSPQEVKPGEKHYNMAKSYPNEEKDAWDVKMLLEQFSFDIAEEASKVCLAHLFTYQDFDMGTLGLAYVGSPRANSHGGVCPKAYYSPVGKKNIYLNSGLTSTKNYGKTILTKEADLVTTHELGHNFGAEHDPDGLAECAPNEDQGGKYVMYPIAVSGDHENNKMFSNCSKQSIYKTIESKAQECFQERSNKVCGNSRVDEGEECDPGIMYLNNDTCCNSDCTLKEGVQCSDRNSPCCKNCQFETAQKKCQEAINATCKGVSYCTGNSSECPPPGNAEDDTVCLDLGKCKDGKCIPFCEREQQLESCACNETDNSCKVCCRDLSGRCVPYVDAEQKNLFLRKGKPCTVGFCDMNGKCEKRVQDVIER
T2 sequence (P78536 215-651): as above
T3 sequence (P78536 215-477): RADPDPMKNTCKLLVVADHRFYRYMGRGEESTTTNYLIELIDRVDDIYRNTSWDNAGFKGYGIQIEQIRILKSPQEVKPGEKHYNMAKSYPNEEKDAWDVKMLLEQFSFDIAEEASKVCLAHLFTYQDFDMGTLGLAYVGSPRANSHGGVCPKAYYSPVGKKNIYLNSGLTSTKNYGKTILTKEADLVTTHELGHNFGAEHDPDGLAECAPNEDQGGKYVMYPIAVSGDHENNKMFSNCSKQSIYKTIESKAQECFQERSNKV

Take `CC(C)(C)[C@H](NC(=O)[C@H](CCCc1ccc(Cl)cc1)CC(=O)NO)C(N)=O` [CT1746, reference compound]: the “effect on ADAM10 proteolytic activity” value in data set [1] was “rapidly inhibits”.

B1: D1(A12) scFv: scFv format; VH SEQ ID NO: 7, VL SEQ ID NO: 9 (antibody, listed as Homo sapiens, V domains shown)
VH: EVQLVESGGGLVRPGGSLRLSCAASGFTFSSYAMSWVRQAPGKGLEWVSAISGSGGSTYYADSVKGRFTISRDNTKNSLYLQMTSLRADDTAFYYCVKDFGPGYGTGWFDYWGPGTLVTVSA
VL: SDIQMTQSPSSLSASVGDRVTITCRASQSISSYLNWYQQKPGKAPKLLIHDASSLQSGVPSRFSGSGSGTDFTLTISSLQPEDFATYYCQQSFSIPLTFGGGTKMDIKR
modifications: scFv linker
Consider B1, for which the “immunoreactivity following PDI treatment of the TACE ectodomain” value in data set [2] is recorded as “largely resistant to PDI modulation”. Besides, the IC50 came out at 2.3 nM in data set [3] and 0.89 nM in data set [4].
